Measured values as given in patent US20220259316A1 (SINOCELLTECH, published 2022).

Biological target: T1, EGFR ECD recombinant protein (UniProt P00533 25-645, limits assumed)
T1 construct: extracellular domain; also called erbB1; Her1
Assay: method not stated; recombinant EGFR ECD protein

Kd: 0.05 nM
B1: recombinant fully human anti-EGFR monoclonal antibody N6-3 (antibody, human IgG1, kappa, V domains shown)
VH: QVQLQESGPGLVKPSETLSLTCTVSGGSVSSGDYYWSWIRQSPGKGLEWIGHIYYSGNTNYNPSLKSRLTISIDTSKNQFSLKLSSVTAADTAIYYCVRDRVTGAFDIWGQGTMVTVSS
VL: DIVMTQSPSTLSASVGDRVTITCQASQDISNYLNWYQQKPGKAPKLLIYDASSLETGVPSRFSGSGSGTDFTFTISGLQPEDIATYFCQHFDHLPLAFGGGTKVEIKR
notes: also called recombinant human anti-EGFR monoclonal antibody (N6-3)
